The record followed here is article PMC10329844, “Regulatory architecture of housekeeping genes is driven by promoter assemblies”.

For data set [1], the target named is T1, Ronin (Thap11), Prospec PRO-2009 (UniProt Q96EK4 1-314). The experiment in a line: competition; abolishes Ronin-stimulated circularization of N3; Circularization: 1x T4 ligase buffer, 100 ng DNA, 1.358 uM protein, 10 uL, 25 min RT, then ligase 20 min RT. AFM: 1x LightShift binding buffer, 350 mM KCl, 1 mM EDTA, 6% glycerol, 10 min on ice, then 0.4x T4 ligase buffer, 20% glycerol, 1 mM EDTA, 2 mM GTP, 30 min RT. The conditions noted are these: protein: commercial; blunt.
T1 sequence (Q96EK4 whole entry): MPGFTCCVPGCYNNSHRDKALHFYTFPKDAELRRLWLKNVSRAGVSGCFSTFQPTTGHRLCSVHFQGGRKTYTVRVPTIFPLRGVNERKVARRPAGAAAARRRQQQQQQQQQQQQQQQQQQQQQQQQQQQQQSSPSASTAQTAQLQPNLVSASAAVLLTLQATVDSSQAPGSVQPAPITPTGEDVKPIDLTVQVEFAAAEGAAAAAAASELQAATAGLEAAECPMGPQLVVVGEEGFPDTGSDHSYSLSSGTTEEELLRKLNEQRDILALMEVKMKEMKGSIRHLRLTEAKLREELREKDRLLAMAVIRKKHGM

Data set [2] concerns the target T1, Ronin (Thap11), Prospec PRO-2009. The experiment in a line: competition; no effect on Ronin-stimulated circularization of N3; Circularization: 1x T4 ligase buffer, 100 ng DNA, 1.358 uM protein, 10 uL, 25 min RT, then ligase 20 min RT. AFM: 1x LightShift binding buffer, 350 mM KCl, 1 mM EDTA, 6% glycerol, 10 min on ice, then 0.4x T4 ligase buffer, 20% glycerol, 1 mM EDTA, 2 mM GTP, 30 min RT. The note with it: protein: commercial; blunt.

B1: C1 competitor (RBM in random flanks) (dsDNA)
DNA 1: ACTAGCTCTCTGGGAATTGTAGTTCGGCAATCTCT
DNA 2: AGAGATTGCCGAACTACAATTCCCAGAGAGCTAGT
As for B1, the binding result in data set [1] was “binds”.

B2: C2 competitor (both RBM half-sites mutated) (dsDNA)
DNA 1: ACTAGCTCTTGATTCCGGAGCTGGAGGCAATCTCT
DNA 2: AGAGATTGCCTCCAGCTCCGGAATCAAGAGCTAGT
Take B2: the binding result in data set [2] was “no binding”.
